Laboratory results taken from patent EP0971740B1.

Columns and labels:
[1] = target: FnBP purified from S. aureus strain Newman (Staphylococcus aureus); assay: competition ELISA on FnBP coated at 5 µg/ml; competitor anti-D121-34 F(ab')2 at 100 µg/ml
[2] = target: FnBP purified from S. aureus strain Newman (Staphylococcus aureus); assay: competition ELISA on FnBP coated at 5 µg/ml; competitor anti-D320-33 F(ab')2 at 100 µg/ml

Human plasma Fn (from UniProt P02751 32-2477) (ligand)
concentration of soluble Fn at which F(ab')2 recognition of FnBP was virtually eliminated [1]: 50 µg/mL | concentration of soluble Fn at which F(ab')2 recognition of FnBP was virtually eliminated [2]: 50 µg/mL
